# Assay results: PMC6224377 (Frontiers in Immunology, 2018)
# B1: MK-7C3 (antibody, V domains shown)
# VH: EVQLLETGGGVVQPGRSLRLSCVASGFTFRSHGMHWVRQAPGKGLEWVALIWYDGSKKYYADSVKGRFTISRDNSKNTLYLQMNSLRAEDTAVYYCARVGAGLYLDYWGQGTLVTVSS
# VL: AIRMTQSPSTLSASVGDRVTITCRASQTISNWLAWFQQKPGKAPKVLIYKASSLESGVPSRFSGSGSGTEFTLTISSLQPDDFASYYCQQYNSYSYTFGQGTRLEIK
# B2: GK-22G12 (antibody, V domains shown)
# VH: EVQLVESGGGLVQSGGSLRLSCAASGFTFSSQRLSWVRQAPGKGLEWVANIKQDGSEKNYVDSVRGRFTISRDIAKNSLYLQMNSLRAEDTAVYYCARDGYRNGWHIPEDYWGQGTLVTVSS
# VL: DIVMTQSPSSLSASVGDRVTITCRASQGISNYLAWYQQKPGKVPKLLIYAASTLQSGVPSRFSGSGSGTDFTLTISSLQPEDVSTYYCQKHNRAPWTFGQGTKLEIK
# B3: MK-24C10 (antibody, V domains shown)
# VH: QVQLVESGGGVVQPGRSLRLSCAASGFTFSSYGMHWVRQAPGKGLEWVAVIWFDGTNKHYADSVKGRFTISRDNSKNTLYLQMNSLRAEDTAVYYCARDKGEWFGELRYYYYGMDVWGQGTTVTVSS
# VL: not shown
# B4: GK-1E5 (antibody, V domains shown)
# VH: EVQLVESGGGVVQPGRSLRLSCAASGFTFRSYGMHWVRQAPGKGLEWVAIIWYDGSKKYYTDSVQGRFTISRDNSKNTLYLQMNSLRAEDTAVYYCARPGIAMTGLDYWGQGTLVTVSS
# VL: DIQLTQSPSTLSASVGDRVTITCRASQSISSWLAWYQQKPGKAPKLLIYKASSLESGVPSRFSGSGSGTEFTLTISSLQPDDFATYYCQQYNNYWTFGQGTKVEIK
# B5: GK-2G8 (antibody, V domains shown)
# VH: QVQLQESGGGVVQPGRSLRLSCAASGFTFRSYGMHWVRQAPGKGLEWVAIIWYDGSKKYYTDSVKGRFTISRDNSKNTLYLQMNSLRAEDTAVYYCARPGVAMTGLDLWGQGTLVTVSS
# VL: EIVMTQSPSTLSASVGDRVTITCRASQSISSWLAWYQQKPGKAPKLLIYKASSLESGVPSRFSGSGSGTEFTLTISSLQPDDFATYYCQQYNNYWTFGQGTKVDIK
# B6: MK-3B12 (antibody, V domains shown)
# VH: EVQLVESGPGLLKPSETLSLTCAVSGYSISSGYYWGWIRQPPGKGLEWIGSIYQSGSTHYNPSLKSRVTISVDTSKNQFSLKLTSVTAADTAVYYCAREDRAGWYPFDCWGQGTLVTVSS
# VL: DIVMTQSPSTLSASVGDRVTITCRASQSISSWLAWYQQKPGKAPKLLIYKASSLESGVPSRFSGSGSGTEFTLTISSLQPDDFATYYCQQYNNYWTFGQGTKVEIK
# B7: GK-5A1 (antibody, V domains shown)
# VH: QVQLVESGGGVVQPGRSLRLSCAASGFTFSSYGMYWVRQAPGKGLEWVAVIWNDGSNKYYADSVKGRFTISRDNSKNTLYLQMNSLRAEDTAVYYCAREGSGWYDYYYGMDVWGQGTTVTVSS
# VL: EIVLTQSPSTLSASVGDRVTITCRASQSISSWLAWYQQKPGKAPKLLIYKASSLESGVPSRFSGSGSGTEFTLTISSLQPDDFATYYCQQYNSYWTFGQGTKVDIK
# B8: GK-5E1 (antibody, V domains shown)
# VH: QVTLKESGGDVVQPGRSLRLSCAASGFTFRTYGMHWVRQAPGKGPEWVALIWYDGSKKYYADSVKGRFTISRDNSKNTLYLQMNSLRAEDTAVYYCVRVRFGELYFQHWGQGTLVTVSS
# VL: not shown
# B9: GK-5G12 (antibody, V domains shown)
# VH: QITLKESGGGVVQPGRSLRLSCAASGFTFRTYGMHWVRQAPGKGLEWVALIWYDGSNKYYADSVKGRFTISRDNSKNTLYLQMNSLRAEDTAVYYCIRVKFGDLYFQHWGQGTLVTVSS
# VL: EIVLTQSPSSLSASVGDRVTITCRASQGISNYLAWYQQKPGKVPKLLIYAASTLQSGVPSRFSGSGSGTDFTLTISSLQPEDVATYYCQKYNSAPYTFGQGTKLEIK
# Biological target: T1, hROR2-ECD-Twin-Strep (soluble human ROR2 extracellular domain fused to a Twin-Strep-tag) (Homo sapiens (Human)., UniProt Q01974)
# T1 construct: signal peptide in the construct; extracellular domain of human receptor tyrosine kinase-like orphan receptor 2 (ROR2), NP_004551.2, amino acids 1-403; Gene synthesis (GenScript), vector pCB14b; also called hROR2-Twin-Strep; human ROR2-ECD-Twin-Strep; not shown: Twin-Strep-tag, C-terminal, kept
# Assay: SPR; multi-cycle SPR, Biacore T200; antibodies captured on a CM5 Protein A chip or by Protein G immobilized on a CM5 chip (capture levels 148 to 845 RU); hROR2-ECD-Twin-Strep as analyte, 2-fold serial dilutions 40 nM to 2.5 nM in running buffer
# Conditions: both partners purified
# T1 sequence (Q01974 34-403): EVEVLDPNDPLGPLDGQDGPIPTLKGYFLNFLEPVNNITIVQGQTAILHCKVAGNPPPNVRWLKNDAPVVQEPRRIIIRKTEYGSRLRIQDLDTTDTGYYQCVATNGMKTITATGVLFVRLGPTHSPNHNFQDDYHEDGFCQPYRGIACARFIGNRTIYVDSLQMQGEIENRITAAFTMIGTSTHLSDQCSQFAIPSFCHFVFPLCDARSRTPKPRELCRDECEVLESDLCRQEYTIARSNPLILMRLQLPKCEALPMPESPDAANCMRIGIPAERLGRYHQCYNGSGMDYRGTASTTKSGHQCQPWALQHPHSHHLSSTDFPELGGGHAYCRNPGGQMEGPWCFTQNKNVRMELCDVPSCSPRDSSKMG
row,Binder,binding result
1,B1,binds
2,B2,binds
3,B3,binds

# Biological target: T1, hROR2-ECD-Twin-Strep (soluble human …)
# Assay: ELISA; MaxiSorp plates coated with 2 μg/ml antigen in 100 mM bicarbonate/carbonate buffer; purified monoclonal antibodies from 0.5-2 μg/ml in serial dilutions in PBS-T/1% BSA, 1 h at 37°C; detected with HRP-conjugated F(ab')2 anti-human Fcγ
# Conditions: both partners purified
row,Binder,binding result
1,B4,binds
2,B5,binds
3,B6,binds
4,B7,binds
5,B8,binds
6,B9,binds
